Source: paper PMC9482650, “Quantitative fragmentomics allow affinity mapping of interactomes” (Nature Communications, 2022)
Each block holds one binder with its values, some of them ahead of it.

How the values were obtained:
Assay in all cases: holdup assay
Set-up in all cases: key: below the threshold = too weak to quantify, mostly under pKd 3.1 to 4
PDZRN3_1, Q9UPQ7 = target: T1, PDZRN3_1, Q9UPQ7
T1 sequence (Q9UPQ7 244-349, limits assumed, looked up): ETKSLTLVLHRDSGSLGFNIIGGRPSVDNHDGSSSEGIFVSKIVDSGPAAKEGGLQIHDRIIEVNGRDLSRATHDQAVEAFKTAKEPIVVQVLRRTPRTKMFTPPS

MAGI1_2, Q96QZ7 = target: MAGI1_2, Q96QZ7
Chain of MAGI1_2, Q96QZ7 (Q96QZ7 456-580): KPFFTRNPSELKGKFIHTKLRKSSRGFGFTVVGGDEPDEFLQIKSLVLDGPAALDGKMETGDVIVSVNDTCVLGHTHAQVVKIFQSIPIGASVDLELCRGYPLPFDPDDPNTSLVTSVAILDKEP

IL16_1, Q14005 = target: IL16_1, Q14005
Chain of IL16_1, Q14005 (Q14005 210-306): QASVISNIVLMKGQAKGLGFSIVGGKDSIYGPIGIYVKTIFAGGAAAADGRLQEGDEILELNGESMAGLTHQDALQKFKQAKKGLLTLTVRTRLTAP

GRIP2_4, Q9C0E4 = target: GRIP2_4, Q9C0E4
Chain of GRIP2_4, Q9C0E4 (Q9C0E4 446-548): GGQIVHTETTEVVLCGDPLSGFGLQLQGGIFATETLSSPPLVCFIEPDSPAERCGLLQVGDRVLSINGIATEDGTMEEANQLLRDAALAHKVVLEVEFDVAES

NHERF3_1, Q5T2W1 = target: T2, NHERF3_1, Q5T2W1
T2 sequence (Q5T2W1 4-100, limits assumed, looked up): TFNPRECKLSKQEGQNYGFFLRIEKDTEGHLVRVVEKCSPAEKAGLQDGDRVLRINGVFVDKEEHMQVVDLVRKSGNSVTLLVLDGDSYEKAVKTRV

LIN7A, O14910 = target: T3, LIN7A, O14910
T3 sequence (O14910 103-200, limits assumed, looked up): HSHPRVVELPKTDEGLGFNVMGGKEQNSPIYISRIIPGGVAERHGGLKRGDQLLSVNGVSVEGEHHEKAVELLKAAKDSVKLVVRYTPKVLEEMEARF

PARD3_3, Q8TEW0 = target: PARD3_3, Q8TEW0
Chain of PARD3_3, Q8TEW0 (Q8TEW0 582-685): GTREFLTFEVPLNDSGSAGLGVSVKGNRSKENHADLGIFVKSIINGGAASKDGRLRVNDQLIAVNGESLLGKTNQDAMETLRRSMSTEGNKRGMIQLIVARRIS

PCLO, Q9Y6V0 = target: T4, PCLO, Q9Y6V0
T4 sequence (Q9Y6V0 4491-4600, limits assumed, looked up): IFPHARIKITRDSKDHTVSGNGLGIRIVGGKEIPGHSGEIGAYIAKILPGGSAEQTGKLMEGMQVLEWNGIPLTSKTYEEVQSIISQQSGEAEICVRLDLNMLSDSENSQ

LRRC7, Q96NW7 = target: T5, LRRC7, Q96NW7
T5 sequence (Q96NW7 1440-1537, limits assumed, looked up): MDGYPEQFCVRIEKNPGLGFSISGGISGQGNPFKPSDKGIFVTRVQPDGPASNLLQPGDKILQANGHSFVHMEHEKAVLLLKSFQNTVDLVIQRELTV

DFNB31_1, Q9P202 = target: T6, DFNB31_1, Q9P202
T6 sequence (Q9P202 135-233, limits assumed, looked up): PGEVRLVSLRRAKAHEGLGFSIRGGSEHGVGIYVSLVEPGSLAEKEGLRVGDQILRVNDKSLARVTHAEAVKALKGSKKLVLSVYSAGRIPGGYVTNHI

GRIP1_3, Q9Y3R0 = target: T7, GRIP1_3, Q9Y3R0
T7 sequence (Q9Y3R0 247-346, limits assumed, looked up): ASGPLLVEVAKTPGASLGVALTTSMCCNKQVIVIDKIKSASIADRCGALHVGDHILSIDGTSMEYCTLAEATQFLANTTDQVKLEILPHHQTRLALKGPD

NHERF3_4, Q5T2W1 = target: T8, NHERF3_4, Q5T2W1
T8 sequence (Q5T2W1 373-468, limits assumed, looked up): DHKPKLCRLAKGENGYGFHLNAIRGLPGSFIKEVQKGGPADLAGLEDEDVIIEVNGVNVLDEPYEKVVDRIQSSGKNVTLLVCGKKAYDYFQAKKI

ARHGEF12, Q9NZN5-2 = target: ARHGEF12, Q9NZN5-2
Chain of ARHGEF12, Q9NZN5-2 (Q9NZN5 other isoform, or with tags, fused parts or gaps): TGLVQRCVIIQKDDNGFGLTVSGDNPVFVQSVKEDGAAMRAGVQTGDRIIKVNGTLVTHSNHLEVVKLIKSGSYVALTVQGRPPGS

Inadl_5, Q8NI35 = target: Inadl_5, Q8NI35
Chain of Inadl_5, Q8NI35 (Q8NI35 673-780): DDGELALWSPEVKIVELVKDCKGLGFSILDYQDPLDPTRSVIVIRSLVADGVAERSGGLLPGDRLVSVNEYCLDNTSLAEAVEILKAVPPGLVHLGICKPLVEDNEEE

DLG4_1, P78352 = target: DLG4_1, P78352
Chain of DLG4_1, P78352 (P78352 62-152): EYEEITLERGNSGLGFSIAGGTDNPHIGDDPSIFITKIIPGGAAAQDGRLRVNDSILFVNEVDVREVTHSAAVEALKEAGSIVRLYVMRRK

HTRA4, P83105 = target: T9, HTRA4, P83105
T9 sequence (P83105 378-476, limits assumed, looked up): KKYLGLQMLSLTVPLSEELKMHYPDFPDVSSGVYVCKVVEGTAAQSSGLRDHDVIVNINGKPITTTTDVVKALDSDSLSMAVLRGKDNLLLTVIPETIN

MPP7, Q5T2T1 = target: T10, MPP7, Q5T2T1
T10 sequence (Q5T2T1 134-230, limits assumed, looked up): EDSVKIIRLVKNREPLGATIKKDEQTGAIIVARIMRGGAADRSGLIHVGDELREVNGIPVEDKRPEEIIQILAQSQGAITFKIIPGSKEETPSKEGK

LAP2, Q96RT1 = target: LAP2, Q96RT1
Chain of LAP2, Q96RT1 (Q96RT1 other isoform, or with tags, fused parts or gaps): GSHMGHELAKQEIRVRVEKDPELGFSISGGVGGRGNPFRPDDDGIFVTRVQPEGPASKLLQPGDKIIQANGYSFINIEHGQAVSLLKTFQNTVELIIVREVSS

RHPN1, Q8TCX5 = target: T11, RHPN1, Q8TCX5
T11 sequence (Q8TCX5 508-602, limits assumed, looked up): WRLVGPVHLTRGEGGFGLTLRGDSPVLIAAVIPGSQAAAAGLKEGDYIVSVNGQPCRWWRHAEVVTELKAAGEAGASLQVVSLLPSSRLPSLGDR

Inadl_2, Q8NI35 = target: Inadl_2, Q8NI35
Chain of Inadl_2, Q8NI35 (Q8NI35 238-335): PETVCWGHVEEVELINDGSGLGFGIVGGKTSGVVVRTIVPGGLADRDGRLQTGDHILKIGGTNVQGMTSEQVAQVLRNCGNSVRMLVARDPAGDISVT

PICK1, Q9NRD5 = target: PICK1, Q9NRD5
Chain of PICK1, Q9NRD5 (Q9NRD5 17-115): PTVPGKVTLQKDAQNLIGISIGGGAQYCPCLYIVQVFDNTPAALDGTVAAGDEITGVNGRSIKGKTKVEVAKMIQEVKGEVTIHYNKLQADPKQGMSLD

RADIL, Q96JH8 = target: T12, RADIL, Q96JH8
T12 sequence (Q96JH8 971-1071, limits assumed, looked up): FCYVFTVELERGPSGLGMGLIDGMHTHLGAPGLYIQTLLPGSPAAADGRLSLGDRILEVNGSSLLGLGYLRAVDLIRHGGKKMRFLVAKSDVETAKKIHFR

MAST2, Q6P0Q8 = target: MAST2, Q6P0Q8
Chain of MAST2, Q6P0Q8 (Q6P0Q8 1099-1202): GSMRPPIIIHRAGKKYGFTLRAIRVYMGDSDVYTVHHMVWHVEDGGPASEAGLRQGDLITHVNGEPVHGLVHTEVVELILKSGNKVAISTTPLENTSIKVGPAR

DLG1_2, Q12959 = target: DLG1_2, Q12959
Chain of DLG1_2, Q12959 (Q12959 314-412): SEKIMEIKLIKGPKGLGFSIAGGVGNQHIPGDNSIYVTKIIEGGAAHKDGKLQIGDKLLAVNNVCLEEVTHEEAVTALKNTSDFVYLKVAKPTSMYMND

[1] = plain residues with an end cap or a label only (N-terminal biotin on a linker: ado-ado)
[2] = plain residues with an end cap or a label only (N-terminal biotin on a linker: ahx)
[3] = plain residues with an end cap or a label only (N-terminal biotin on a linker: ttds)

pKd (PDZRN3_1, Q9UPQ7; [1]): below the threshold
pKd (MAGI1_2, Q96QZ7; [1]): below the threshold
pKd (IL16_1, Q14005; [1]): below the threshold
pKd (GRIP2_4, Q9C0E4; [1]): below the threshold
pKd (NHERF3_1, Q5T2W1; [1]): 4.43
pKd (LIN7A, O14910; [1]): below the threshold
pKd (PARD3_3, Q8TEW0; [1]): 4.48
pKd (PCLO, Q9Y6V0; [1]): below the threshold
pKd (LRRC7, Q96NW7; [1]): below the threshold
pKd (DFNB31_1, Q9P202; [1]): below the threshold
pKd (GRIP1_3, Q9Y3R0; [1]): below the threshold
pKd (NHERF3_4, Q5T2W1; [1]): below the threshold
pKd (ARHGEF12, Q9NZN5-2; [1]): below the threshold
pKd (Inadl_5, Q8NI35; [1]): 4.55
pKd (DLG4_1, P78352; [1]): below the threshold
pKd (HTRA4, P83105; [1]): below the threshold
pKd (MPP7, Q5T2T1; [1]): 4.79
pKd (LAP2, Q96RT1; [1]): below the threshold
pKd (RHPN1, Q8TCX5; [1]): below the threshold
pKd (Inadl_2, Q8NI35; [1]): 4.92
pKd (PICK1, Q9NRD5; [1]): below the threshold
pKd (RADIL, Q96JH8; [1]): 4.51
pKd (MAST2, Q6P0Q8; [1]): 3.97
pKd (DLG1_2, Q12959; [1]): below the threshold
B1: NRXN3_rs746444206, Q9Y4C0 (peptide)
chain: QKNKDKEYYV

pKd (PDZRN3_1, Q9UPQ7; [2]): 3.54
pKd (MAGI1_2, Q96QZ7; [2]): below the threshold
pKd (IL16_1, Q14005; [2]): below the threshold
pKd (GRIP2_4, Q9C0E4; [2]): below the threshold
pKd (NHERF3_1, Q5T2W1; [2]): 3.89
pKd (LIN7A, O14910; [2]): below the threshold
pKd (PARD3_3, Q8TEW0; [2]): 3.79
pKd (PCLO, Q9Y6V0; [2]): below the threshold
pKd (LRRC7, Q96NW7; [2]): below the threshold
pKd (DFNB31_1, Q9P202; [2]): below the threshold
pKd (GRIP1_3, Q9Y3R0; [2]): below the threshold
pKd (NHERF3_4, Q5T2W1; [2]): 3.54
pKd (ARHGEF12, Q9NZN5-2; [2]): below the threshold
pKd (Inadl_5, Q8NI35; [2]): below the threshold
pKd (DLG4_1, P78352; [2]): below the threshold
pKd (HTRA4, P83105; [2]): below the threshold
pKd (MPP7, Q5T2T1; [2]): below the threshold
pKd (LAP2, Q96RT1; [2]): below the threshold
pKd (RHPN1, Q8TCX5; [2]): 3.94
pKd (Inadl_2, Q8NI35; [2]): below the threshold
pKd (PICK1, Q9NRD5; [2]): below the threshold
pKd (RADIL, Q96JH8; [2]): below the threshold
pKd (MAST2, Q6P0Q8; [2]): 4.08
pKd (DLG1_2, Q12959; [2]): below the threshold
B2: ADRB2, P07550 (peptide)
chain: RNCSTNDSLL

pKd (PDZRN3_1, Q9UPQ7; [3]): 5.09
pKd (MAGI1_2, Q96QZ7; [3]): 3.78
pKd (IL16_1, Q14005; [3]): below the threshold
pKd (GRIP2_4, Q9C0E4; [3]): below the threshold
pKd (NHERF3_1, Q5T2W1; [3]): 5.24
pKd (LIN7A, O14910; [3]): below the threshold
pKd (PARD3_3, Q8TEW0; [3]): 3.82
pKd (PCLO, Q9Y6V0; [3]): below the threshold
pKd (LRRC7, Q96NW7; [3]): 3.58
pKd (DFNB31_1, Q9P202; [3]): 4.22
pKd (GRIP1_3, Q9Y3R0; [3]): below the threshold
pKd (NHERF3_4, Q5T2W1; [3]): 3.94
pKd (ARHGEF12, Q9NZN5-2; [3]): 4.88
pKd (Inadl_5, Q8NI35; [3]): below the threshold
pKd (DLG4_1, P78352; [3]): 4.06
pKd (HTRA4, P83105; [3]): 3.48
pKd (MPP7, Q5T2T1; [3]): below the threshold
pKd (LAP2, Q96RT1; [3]): 3.8
pKd (RHPN1, Q8TCX5; [3]): 4.75
pKd (Inadl_2, Q8NI35; [3]): below the threshold
pKd (PICK1, Q9NRD5; [3]): below the threshold
pKd (RADIL, Q96JH8; [3]): below the threshold
pKd (MAST2, Q6P0Q8; [3]): 5.88
pKd (DLG1_2, Q12959; [3]): 4.67
B3: ATP2B1, P20020 (peptide)
chain: SPLHSLETSL
